Laboratory results as given in publication PMC11007441, “Deciphering the role of Enterococcus faecium cytidine deaminase in gemcitabine resistance of gallbladder cancer” (The Journal of Biological Chemistry, 2024).

B1: cytidine deaminase of Enterococcus faecium (EfCDA) (enzyme, UniProt Q3XXR8 1-132, looked up)
chain: MAELKQEWINTAIEALDKAYVPYSHFPVGACLVTESGKIYQGINIENASFGLTNCAERTAFFKAVSEGEKTFTHLVVAGHTPDPISPCGACRQVMAEFCSPDMPVTLVGDNGVTKATTVRALLPYAFTEKDL
notes: cytidine deaminase of Enterococcus faecium, full-length protein with a single CDA catalytic domain, 132 amino acids; UniProt A0A133N269, WP_002291109.1; Homotetramer in the crystal: molecules A and B in the asymmetric unit, the tetramer completed by a symmetry operation; One zinc ion per chain (C55, C88, C91); also called EfCDD; T-CDA; source: E. coli BL21 (DE3), purified (HisTrap HP, HiTrap Q, …)

Tests used:
[1] = system: Nc1ccn([C@@H]2O[C@H](CO)[C@@H](O)C2(F)F)c(=O)n1; assay: purified protein; settings: 0.2 uM enzyme; gemcitabine 0.5-8 mM; initial rates 0-1 min
[2] = biological target: the molecule itself; assay: crystal structure; vapor diffusion, EfCDA at 15 mg/ml; apo-I (0.1 M Tris pH 8.5, 2.2 M (NH4)2SO4), apo-II (0.1 M sodium cacodylate pH 6.5, 20% PEG 4000) and complex with dFdU (co-crystallised with gemcitabine 1:10); tetramer from two molecules of the asymmetric unit by crystal symmetry

| Molecule | Km [1] [mM] | stoichiometry N [2] |
| --- | --- | --- |
| EfCDA (cytidine deaminase of Enterococcus faecium) (Enterococcus lactis) | 8.44 |  |
| B1 |  | 4 |
